The results in this text go back to publication PMC3443293 (Nature structural & molecular biology, 2012).

First the molecules themselves.
B1: mouse nectin-4 ectodomain (D1-D3) (domain or fragment)
chain: GELETSDVVTVVLGQDAKLPCFYRGDPDEQVGQVAWARVDPNEGIRELALLHSKYGLHVNPAYEDRVEQPPPPRDPLDGSVLLRNAVQADEGEYECRVSTFPAGSFQARMRLRVLVPPLPSLNPGPPLEEGQGLTLAASCTAEGSPAPSVTWDTEVKGTQSSRSFTHPRSAAVTSEFHLVPSRSMNGQPLTCVVSHPGLLQDRRITHTLQVAFLAEASVRGLEDQNLWQVGREGATLKCLSEGQPPPKYNWTRLDGPLPSGVRVKGDTLGFPPLTTEHSGVYVCHVSNELSSRDSQVTVEVLDPEDPG
modifications: natively glycosylated
B2: human nectin-4 ectodomain (D1-D3) (domain or fragment)
chain: GELETSDVVTVVLGQDAKLPCFYRGDSGEQVGQVAWARVDAGEGAQELALLHSKYGLHVSPAYEGRVEQPPPPRNPLDGSVLLRNAVQADEGEYECRVSTFPAGSFQARLRLRVLVPPLPSLNPGPALEEGQGLTLAASCTAEGSPAPSVTWDTEVKGTTSSRSFKHSRSAAVTSEFHLVPSRSMNGQPLTCVVSHPGLLQDQRITHILHVSFLAEASVRGLEDQNLWHIGREGAMLKCLSEGQPPPSYNWTRLDGPLPSGVRVDGDTLGFPPLTTEHSGIYVCHVSNEFSSRDSQVTVDVLDPQ
modifications: natively glycosylated
B3: human nectin-1 ectodomain (D1-D3) F129D (domain or fragment)
chain: QVVQVNDSMYGFIGTDVVLHCSFANPLPSVKITQVTWQKSTNGSKQNVAIYNPSMGVSVLAPYRERVEFLRPSFTDGTIRLSRLELEDEGVYICEFATDPTGNRESQLNLTVMAKPTNWIEGTQAVLRAKKGQDDKVLVATCTSANGKPPSVVSWETRLKGEAEYQEIRNPNGTVTVISRYRLVPSREAHQQSLACIVNYHMDRFKESLTLNVQYEPEVTIEGFDGNWYLQRMDVKLTCKADANPPATEYHWTTLNGSLPKGVEAQNRTLFFKGPINYSLAGTYICEATNPIGTRSGQVEVNITEFP
modifications: natively glycosylated
B4: human nectin-1 ectodomain (D1-D3) (domain or fragment)
chain: B3 chain with D99F
modifications: natively glycosylated (N-linked glycans)
B5: mouse nectin-1 ectodomain (D1-D3) (domain or fragment)
chain: QVVQVNDSMYGFIGTDVVLHCSFANPLPSVKITQVTWQKASNGSKQNMAIYNPTMGVSVLPPYEKRVEFLRPSFIDGTIRLSGLELEDEGMYICEFATFPTGNRESQLNLTVMAKPTNWIEGTRAVLRARKGQDDKVLVATCTSANGKPPSAVSWETRLKGEAEYQEIRNPNGTVTVISRYRLVPSREAHRQSLACIVNYHLDRFRESLTLNVQYEPEVTIEGFDGNWYLQRTDVKLTCKADANPPATEYHWTTLNGSLPKGVEAQNRTLFFRGPITYSLAGTYICEATNPIGTRSGQVEVNITEFP
modifications: natively glycosylated
B6: mouse nectin-2 ectodomain (D1-D3) (domain or fragment)
chain: QDVRVRVLPEVRGRLGGTVELPCHLLPPTTERVSQVTWQRLDGTVVAAFHPSFGVDFPNSQFSKDRLSFVRARPETNADLRDATLAFRGLRVEDEGNYTCEFATFPNGTRRGVTWLRVIAQPENHAEAQEVTIGPQSVAVARCVSTGGRPPARITWISSLGGEAKDTQEPGIQAGTVTIISRYSLVPVGRADGVKVTCRVEHESFEEPILLPVTLSVRYPPEVSISGYDDNWYLGRSEAILTCDVRSNPEPTDYDWSTTSGVFPASAVAQGSQLLVHSVDRMVNTTFICTATNAVGTGRAEQVILVRESP
modifications: natively glycosylated
B7: human nectin-2 ectodomain (D1-D3) (domain or fragment)
chain: QDVRVQVLPEVRGQLGGTVELPCHLLPPVPGLYISLVTWQRPDAPANHQNVAAFHPKMGPSFPSPKPGSERLSFVSAKQSTGQDTEAELQDATLALHGLTVEDEGNYTCEFATFPKGSVRGMTWLRVIAKPKNQAEAQKVTFSQDPTTVALCISKEGRPPARISWLSSLDWEAKETQVSGTLAGTVTVTSRFTLVPSGRADGVTVTCKVEHESFEEPALIPVTLSVRYPPEVSISGYDDNWYLGRTDATLSCDVRSNPEPTGYDWSTTSGTFPTSAVAQGSQLVIHAVDSLFNTTFVCTVTNAVGMGRAEQVIFVRETP
modifications: natively glycosylated
B8: mouse nectin-2 D1-2 fragment (domain or fragment)
chain: QDVRVRVLPEVRGRLGGTVELPCHLLPPTTERVSQVTWQRLDGTVVAAFHPSFGVDFPNSQFSKDRLSFVRARPETNADLRDATLAFRGLRVEDEGNYTCEFATFPNGTRRGVTWLRVIAQPENHAEAQEVTIGPQSVAVARCVSTGGRPPARITWISSLGGEAKDTQEPGIQAGTVTIISRYSLVPVGRADGVKVTCRVEHESFEEPILLPVTLSVRY
modifications: natively glycosylated (N-linked glycans)
B9: human nectin-4 D1-2 fragment (domain or fragment)
chain: GELETSDVVTVVLGQDAKLPCFYRGDSGEQVGQVAWARVDAGEGAQELALLHSKYGLHVSPAYEGRVEQPPPPRNPLDGSVLLRNAVQADEGEYECRVSTFPAGSFQARLRLRVLVPPLPSLNPGPALEEGQGLTLAASCTAEGSPAPSVTWDTEVKGTTSSRSFKHSRSAAVTSEFHLVPSRSMNGQPLTCVVSHPGLLQDQRITHILHVS

Substitutions are numbered along the chain they refer to.

One data set deals with the molecule itself. In words: AUC.
One may read the Kd as the equilibrium constant for the complex coming apart. Read a low Kd as higher affinity. A word on the stoichiometry N: it is a count of units in the complex or per binding partner. Regarding B1, the Kd turned out to be 278 µM and the “stoichiometry N” value was found to be 2.
As for B2, the Kd turned out to be 153 µM and the “stoichiometry N” value came to 2.
Take B3: the Kd turned out to be 820 µM and the “stoichiometry N” value stood at 2.
In the case of B4, the Kd came to 17.5 µM and the “stoichiometry N” value turned out to be 2.
As for B5, the Kd was determined as 22.6 µM and the “stoichiometry N” value worked out at 2.
On to B6, for which the Kd amounted to 1.09 µM and the “stoichiometry N” value is 2.
With B7, binding was characterised by a dissociation constant (Kd) of 0.392 µM and the “stoichiometry N” value stood at 2.
For the molecule B8, the Kd was 7.62 µM and the “stoichiometry N” value turned out to be 2.

In the next data set the target is human nectin-3 ectodomain (D1-D3) (human, UniProt Q9NQS3 58-359, natively glycosylated (N-linked glycans)). In words: SPR. For orientation: Surface plasmon resonance follows binding to a sensor surface in real time, without labels.
As to B4, the binding result is listed as “binds”.
Consider B7, for which the binding result is “binds”.

A further data set concerns the molecule itself. In words: crystal structure.
For B9, the binding result is on record as “binds”.

A further data set concerns the target B4. In words: AUC.
As to B2, the binding result is reported as “binds”.
